The values below come from patent US20160194639.

For the data set, the target named is α2-antiplasmin.

B1: endogenous plasmin of mouse brain slices (protein)
chain: VYLSECKTGIGNGYRGTMSRTKSGVACQKWGATFPHVPNYSPSTHPNEGLEENYCRNPDNDEQGPWCYTTDPDKRYDYCNIPECEEECMYCSGEKYEGKISKTMSGLDCQAWDSQSPHAHGYIPAKFPSKNLKMNYCRNPDGEPRPWCFTTDPTKRWEYCDIPRCTTPPPPPSPTYQCLKGRGENYRGTVSVTVSGKTCQRWSEQTPHRHNRTPENFPCKNLEENYCRNPDGETAPWCYTTDSQLRWEYCEIPSCESSASPDQSDSSVPPEEQTPVVQECYQSDGQSYRGTSSTTITGKKCQSWAAMFPHRHSKTPENFPDAGLEMNYCRNPDGDKGPWCYTTDPSVRWEYCNLKRCSETGGSVVELPTVSQEPSGPSDSETDCMYGNGKDYRGKTAVTAAGTPCQGWAAQEPHRHSIFTPQTNPRAGLEKNYCRNPDGDVNGPWCYTTNPRKLYDYCDIPLCASASSFECGKPQVEPKKCPGRVVGGCVANPHSWPWQISLRTRFTGQHFCGGTLIAPEWVLTAAHCLEKSSRPEFYKVILGAHEEYIRGLDVQEISVAKLILEPNNRDIALLKLSRPATITDKVIPACLPSPNYMVADRTICYITGWGETQGTFGAGRLKEAQLPVIENKVCNRVEYLNNRVKSTELCAGQLAGGVDSCQGDSGGPLVCFEKDKYILQGVTSWGLGCARPNKPGVYVRVSRFVDWIEREMRNN
With B1, the “plasmin activity in brain slices (D-VLK chromogenic plasmin substrate assay)” value is “addition of the plasmin inhibitor α2-antiplasmin (Bajou et al., 2008) inhibited this activity”.
